The Kd is the constant that tells how readily two partners part at equilibrium. Low values mean higher affinity, high ones lower affinity.

Results on one molecule are retold here after publication PMC13064845 (2025).

This assay addresses thrombospondin-1 (TSP1), immobilised in the Biacore analysis (UniProt P35441 19-1170). The assay is described as follows: SPR. (In general: SPR reads the build-up and loss of mass on a sensor chip optically.)

Chain of thrombospondin-1 (TSP1), immobilised in the Biacore analysis (P35441 19-1170): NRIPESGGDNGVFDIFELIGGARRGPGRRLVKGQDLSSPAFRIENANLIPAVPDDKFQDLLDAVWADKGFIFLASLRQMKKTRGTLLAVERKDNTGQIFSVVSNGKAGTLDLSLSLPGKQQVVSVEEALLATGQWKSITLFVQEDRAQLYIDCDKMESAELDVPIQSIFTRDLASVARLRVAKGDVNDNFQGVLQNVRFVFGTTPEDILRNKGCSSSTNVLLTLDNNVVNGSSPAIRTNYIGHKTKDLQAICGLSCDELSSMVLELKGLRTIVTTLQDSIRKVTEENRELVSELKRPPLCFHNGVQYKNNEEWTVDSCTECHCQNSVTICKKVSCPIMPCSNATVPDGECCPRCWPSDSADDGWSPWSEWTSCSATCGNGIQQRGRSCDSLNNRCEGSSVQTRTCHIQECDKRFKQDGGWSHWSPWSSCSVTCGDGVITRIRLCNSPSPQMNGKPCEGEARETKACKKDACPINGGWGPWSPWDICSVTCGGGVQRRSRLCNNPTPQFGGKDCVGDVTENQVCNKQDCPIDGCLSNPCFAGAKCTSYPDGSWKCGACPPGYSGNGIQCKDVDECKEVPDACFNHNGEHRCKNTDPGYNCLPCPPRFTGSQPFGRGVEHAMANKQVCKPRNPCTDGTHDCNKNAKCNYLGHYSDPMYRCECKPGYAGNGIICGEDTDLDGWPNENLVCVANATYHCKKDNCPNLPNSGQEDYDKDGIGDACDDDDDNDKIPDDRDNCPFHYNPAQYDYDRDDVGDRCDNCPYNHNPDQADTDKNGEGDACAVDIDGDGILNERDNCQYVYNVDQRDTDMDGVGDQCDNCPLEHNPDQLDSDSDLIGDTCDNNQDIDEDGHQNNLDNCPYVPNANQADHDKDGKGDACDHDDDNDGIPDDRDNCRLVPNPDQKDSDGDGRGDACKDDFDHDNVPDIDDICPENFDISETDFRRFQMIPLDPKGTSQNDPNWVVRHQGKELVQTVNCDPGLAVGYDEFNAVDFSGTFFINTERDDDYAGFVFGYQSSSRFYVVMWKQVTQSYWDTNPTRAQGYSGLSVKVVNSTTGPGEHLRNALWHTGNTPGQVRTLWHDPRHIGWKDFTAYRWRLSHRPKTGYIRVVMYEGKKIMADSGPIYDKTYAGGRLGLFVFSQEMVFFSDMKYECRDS

B1: fibulin-7 (FBLN7), analyte of the Biacore analysis (natural protein)
chain: QSCLNKQQLLTTIRQLQQLLKGQETRFTEGIRNMKSRLAALQNTVNKMTPDAPPVSCPALEAPPDGKKFGSKYLVDHEVYFTCNPGFQLVGPSSVVCLANGSWTGEQPRCRDISECSSQPCHNGGTCVEGINHYRCICPPGKTGNRCQHQTQAAAPDGGEAGDPAFSRAPRCAQVEREQHCSCEAGFHLSSTTGGHSVCQDVNECEIYGQKGRPRLCMHACVNTPGSYRCTCPSGYRILADGKSCEDVDECAGPQHMCPRGTTCINTGGGFQCVNPECPEGSGNISYVKTSPFQCERNPCPMDSRPCRHLPKTISFHYLSLPSKLKTPITLFRMATASIPGHPGPNSLRFGIVGGNSRGHFVMQRSDRQTGELILTQTLEGPQTLEVDVDMSEYLERSFQANHVSKVTIFVSRYDF
With B1, the Kd was 29.9 nM.
